Here are results for 3 proteins from paper PMC6472344, “Self-organization of Plk4 regulates symmetry breaking in centriole duplication” (Nature Communications, 2019).

Data set [1] concerns the molecule itself. As to the kind of experiment: co-sedimentation; spin-down assay: 500 nM GST-Plk4(Kinase + L1)-His6 incubated at 30 °C for 1 h in kinase buffer (20 mM Tris pH 7.5, 300 or 500 mM NaCl, 30 μM ATP, 5 mM MgCl2, 1 mM β-mercaptoethanol), GST cut off with PreScission protease at 4 °C overnight, centrifuged at 21,500 x g for 10 min; supernatant and pellet by SDS-PAGE and CBB staining.

Data set [2] concerns the molecule itself. Description: Proteostat aggregation assay (dye fluorescence); 300 nM GST-Plk4 (Kinase + L1)-His6 in 20 mM Tris pH 7.5, 300 mM NaCl, 1 mM β-mercaptoethanol, 0.1 mM MnCl2, 37 °C for 1 h with or without lambda phosphatase; fluorescence normalised to the WT.

B1: Plk4 (Kinase + L1)-His6, kinase-dead (D154A), after GST-tag cleavage (domain or fragment, human, UniProt O00444 1-585, looked up)
chain: MATCIGEKIEDFKVGNLLGKGSFAGVYRAESIHTGLEVAIKMIDKKAMYKAGMVQRVQNEVKIHCQLKHPSILELYNYFEDSNYVYLVLEMCHNGEMNRYLKNRVKPFSENEARHFMHQIITGMLYLHSHGILHRDLTLSNLLLTRNMNIKIAAFGLATQLKMPHEKHYTLCGTPNYISPEIATRSAHGLESDVWSLGCMFYTLLIGRPPFDTDTVKNTLNKVVLADYEMPSFLSIEAKDLIHQLLRRNPADRLSLSSVLDHPFMSRNSSTKSKDLGTVEDSIDSGHATISTAITASSSTSISGSLFDKRRLLIGQPLPNKMTVFPKNKSSTDFSSSGDGNSFYTQWGNQETSNSGRGRVIQDAEERPHSRYLRRAYSSDRSGTSNSQSQAKTYTMERCHSAEMLSVSKRSGGGENEERYSPTDNNANIFNFFKEKTSSSSGSFERPDNNQALSNHLCPGKTPFPFADPTPQTETVQQWFGNLQINAHLRKTTEYDSISPNRDFQGHPDLQKDTSKNAWTDTKVKKNSDASDNAHSVKQQNTMKYMTALHSKPEIIQQECVFGSDPLSEQSKTRGMEPPWGYQNR
notes: human Polo-like kinase 4 (Plk4), kinase domain and Linker 1, residues 1-585, kinase-dead; also called KD mutant; KD; source: E. coli BL21 gold (DE3), purified (glutathione sepharose, Ni-agarose); GST cut off with PreScission protease; not shown: GST, N-terminal, cleaved; His6, C-terminal, kept
Consider B1, for which the binding result in data set [1] is given as “binds”.

B2: GST-Plk4 (Kinase + L1)-His6, kinase-dead (D154A) (domain or fragment, human, UniProt O00444 1-585, looked up)
chain: MATCIGEKIEDFKVGNLLGKGSFAGVYRAESIHTGLEVAIKMIDKKAMYKAGMVQRVQNEVKIHCQLKHPSILELYNYFEDSNYVYLVLEMCHNGEMNRYLKNRVKPFSENEARHFMHQIITGMLYLHSHGILHRDLTLSNLLLTRNMNIKIAAFGLATQLKMPHEKHYTLCGTPNYISPEIATRSAHGLESDVWSLGCMFYTLLIGRPPFDTDTVKNTLNKVVLADYEMPSFLSIEAKDLIHQLLRRNPADRLSLSSVLDHPFMSRNSSTKSKDLGTVEDSIDSGHATISTAITASSSTSISGSLFDKRRLLIGQPLPNKMTVFPKNKSSTDFSSSGDGNSFYTQWGNQETSNSGRGRVIQDAEERPHSRYLRRAYSSDRSGTSNSQSQAKTYTMERCHSAEMLSVSKRSGGGENEERYSPTDNNANIFNFFKEKTSSSSGSFERPDNNQALSNHLCPGKTPFPFADPTPQTETVQQWFGNLQINAHLRKTTEYDSISPNRDFQGHPDLQKDTSKNAWTDTKVKKNSDASDNAHSVKQQNTMKYMTALHSKPEIIQQECVFGSDPLSEQSKTRGMEPPWGYQNR
notes: human Polo-like kinase 4 (Plk4), kinase domain and Linker 1, residues 1-585, kinase-dead; also called KD; source: E. coli BL21 gold (DE3), purified (glutathione sepharose, eluted with glutathione; Ni-agarose); not shown: GST, N-terminal, kept; His6, C-terminal, kept
As for B2, the binding result in data set [2] is given as “binds”.

B3: GST-Plk4 (Kinase + L1)-His6, wild type, dephosphorylated with lambda phosphatase (domain or fragment, human, UniProt O00444 1-585, looked up)
chain: MATCIGEKIEDFKVGNLLGKGSFAGVYRAESIHTGLEVAIKMIDKKAMYKAGMVQRVQNEVKIHCQLKHPSILELYNYFEDSNYVYLVLEMCHNGEMNRYLKNRVKPFSENEARHFMHQIITGMLYLHSHGILHRDLTLSNLLLTRNMNIKIADFGLATQLKMPHEKHYTLCGTPNYISPEIATRSAHGLESDVWSLGCMFYTLLIGRPPFDTDTVKNTLNKVVLADYEMPSFLSIEAKDLIHQLLRRNPADRLSLSSVLDHPFMSRNSSTKSKDLGTVEDSIDSGHATISTAITASSSTSISGSLFDKRRLLIGQPLPNKMTVFPKNKSSTDFSSSGDGNSFYTQWGNQETSNSGRGRVIQDAEERPHSRYLRRAYSSDRSGTSNSQSQAKTYTMERCHSAEMLSVSKRSGGGENEERYSPTDNNANIFNFFKEKTSSSSGSFERPDNNQALSNHLCPGKTPFPFADPTPQTETVQQWFGNLQINAHLRKTTEYDSISPNRDFQGHPDLQKDTSKNAWTDTKVKKNSDASDNAHSVKQQNTMKYMTALHSKPEIIQQECVFGSDPLSEQSKTRGMEPPWGYQNR
notes: human Polo-like kinase 4 (Plk4), kinase domain and Linker 1, residues 1-585; The same construct as m5 after removal of its autophosphorylation by λPP; also called λPP-treated WT Plk4 fragments; source: E. coli BL21 gold (DE3), purified (glutathione sepharose, eluted with glutathione; Ni-agarose); incubated with lambda phosphatase; not shown: GST, N-terminal, kept; His6, C-terminal, kept
Regarding B3, the binding result in data set [2] is on record as “binds”.
